Measurements from patent EP4683932A2.

Target: Pak2 kinase (UniProt Q13177)
Assay: cell-based or functional assay

Chain of UniProt Q13177 (Q13177 2-524 limits assumed): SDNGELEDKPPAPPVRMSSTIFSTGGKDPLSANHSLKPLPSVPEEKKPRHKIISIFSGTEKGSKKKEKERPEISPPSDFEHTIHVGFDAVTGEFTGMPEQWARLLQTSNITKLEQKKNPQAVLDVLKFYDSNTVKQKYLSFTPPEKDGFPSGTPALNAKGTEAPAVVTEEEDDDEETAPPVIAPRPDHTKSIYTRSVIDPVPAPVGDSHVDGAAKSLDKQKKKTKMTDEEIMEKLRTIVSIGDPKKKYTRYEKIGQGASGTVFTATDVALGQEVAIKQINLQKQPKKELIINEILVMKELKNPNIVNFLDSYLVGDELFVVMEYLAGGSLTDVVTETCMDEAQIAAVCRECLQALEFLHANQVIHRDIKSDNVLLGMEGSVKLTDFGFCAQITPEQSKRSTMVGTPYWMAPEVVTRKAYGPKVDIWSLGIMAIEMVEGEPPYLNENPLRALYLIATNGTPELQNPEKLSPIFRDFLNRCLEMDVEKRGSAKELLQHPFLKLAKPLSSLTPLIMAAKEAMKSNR

Substance: HIV-1 Nef protein, wild type (Nef from HIV-1 Clade B)
- phosphorylation of the Pak2 kinase at S55, quantitative phosphoproteomics of NALM6-stimulated CAR T cells, Nef-WT compared to NefAxxA: 2.15 log2Fc
- phosphorylation of the Pak2 kinase at S152, quantitative phosphoproteomics of NALM6-stimulated CAR T cells, Nef-WT compared to NefAxxA: 1.17 log2Fc
